In PMC3730723, “A Network of HMG-box Transcription Factors Regulates Sexual Cycle in the Fungus Podospora anserina”:

T1: PaHMG5 (HMG5His) (Podospora anserina, UniProt B2AM17 1-559)
T1 sequence: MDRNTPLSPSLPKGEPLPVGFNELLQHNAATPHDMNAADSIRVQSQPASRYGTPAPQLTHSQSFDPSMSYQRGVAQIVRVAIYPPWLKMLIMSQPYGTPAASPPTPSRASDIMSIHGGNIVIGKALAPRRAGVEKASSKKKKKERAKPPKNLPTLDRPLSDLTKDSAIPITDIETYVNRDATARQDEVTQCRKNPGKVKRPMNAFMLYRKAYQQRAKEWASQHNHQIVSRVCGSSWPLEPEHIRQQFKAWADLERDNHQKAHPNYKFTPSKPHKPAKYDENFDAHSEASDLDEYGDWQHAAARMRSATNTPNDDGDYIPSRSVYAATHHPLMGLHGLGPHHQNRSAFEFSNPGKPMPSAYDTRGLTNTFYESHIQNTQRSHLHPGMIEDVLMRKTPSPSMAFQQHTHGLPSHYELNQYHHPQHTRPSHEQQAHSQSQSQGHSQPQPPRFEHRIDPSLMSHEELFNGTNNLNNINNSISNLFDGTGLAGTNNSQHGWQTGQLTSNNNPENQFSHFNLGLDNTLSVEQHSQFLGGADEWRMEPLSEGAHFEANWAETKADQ

B1: KEF1 (PaHMG9) probe (dsDNA)
DNA 1: GATCGTAGCTATAGACAAAGAAAGCAACAGATAG
DNA 2: GCTATCTGTTGCTTTCTTTGTCTATAGCTACGAT
B2: FMR1 probe (dsDNA)
DNA 1: GTGCAGGATAGCCAACAAAGAAATGACTGCCACG
DNA 2: GCGTGGCAGTCATTTCTTTGTTGGCTATCCTGCA
B3: mtHMG1 probe (dsDNA)
DNA 1: GGAGGGCATCTTCAACAAAGAATCTCGGCAAATA
DNA 2: GTATTTGCCGAGATTCTTTGTTGAAGATGCCCTC
B4: PaHMG8 probe (dsDNA)
DNA 1: GTGCAAACGCGGGGACAAAGAAAAAGTCTGGTGC
DNA 2: GGCACCAGACTTTTTCTTTGTCCCCGCGTTTGCA
B5: PaHMG5 probe (dsDNA)
DNA 1: GTAGAGAAGCCGGAACAAAGAAAGGAACAAGCAG
DNA 2: GCTGCTTGTTCCTTTCTTTGTTCCGGCTTCTCTA
B6: FPR1 probe (dsDNA)
DNA 1: GGTGAAGGTGAATAACAAAGAAATACACTGACGG
DNA 2: GCCGTCAGTGTATTTCTTTGTTATTCACCTTCAC

The binders below were run against T1, PaHMG5 (HMG5His) (assay: EMSA; 20 mM Tris pH 9.0, 500 mM NaCl, 5 mM beta-mercaptoethanol, 5 mM MgCl2, 5% glycerol, 1.25 ug poly(dI-dC), 11 ul, on ice; 6% gel in 0.25x TBE). Conditions: protein: recombinant; tags: C-terminal His6; label: 5'-32P; 33 bp duplex, 1 nt 5' G overhang on each strand.
B1: binds.
B2: binds.
B3: binds.
B4: binds.
B5: binds.
B6: binds.
